Measured values reported in publication PMC12860359 (2025).

T1: MBP-HA Rap1B WT (human, UniProt P61224-1 1-184)
T1 chain: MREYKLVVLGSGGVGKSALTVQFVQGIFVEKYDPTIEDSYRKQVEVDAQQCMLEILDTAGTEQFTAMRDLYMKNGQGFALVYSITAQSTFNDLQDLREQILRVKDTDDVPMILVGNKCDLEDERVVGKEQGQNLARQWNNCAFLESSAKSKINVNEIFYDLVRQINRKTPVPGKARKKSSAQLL


How the values were obtained:
[1] = target: T1, MBP-HA Rap1B WT; assay: BLI; GDP-bound Rap1B
[2] = target: T1, MBP-HA Rap1B WT; assay: BLI; GTPγS-bound Rap1B
[3] = target: T1, MBP-HA Rap1B WT; assay: BLI; GTPγS-bound Rap1B

Binder	Kd [1]	koff [2]	Kd [3]
VHH-hFcS A47 (Fc fusion) EVQLQASGGGFVQPGGSLRLSCAASGFTSKNTIMGWFRQAPGKEREFVSAISSAPGYWEYYADSVKGRFTISRDNSKNTVYLQMNSLRAEDTATYYCAAPINQAPGRPIRSDQYWGQGTQVTVSS	722 nM	0.000574 s⁻¹	–
VHH-hFcS B89 (Fc fusion) EVQLQASGGGFVQPGGSLRLSCAASGFTSKNTIMGWFRQAPGKEREFVSAISSAPGYWEYYADSVKGRFTISRDNSKNTVYLQMNSLRAEDTATYYCAAPINQAPGRPIRWDQYWGQGTQVTVSS	20.2 nM	–	–
VHH-hFcS B14 (Fc fusion) EVQLQASGGGFVQPGGSLRLSCAASGFTSKNTIMGWYRQAPGKERELVSAISSAPGYWEYYADSVKGRFTISRDNSKNTVYLQMNSLRAEDTATYYCAAPINQAPGRPIRSDQYWGQGTQVTVSS	295 nM	0.00104 s⁻¹	25.8 nM
